B1: TCN-533 (5256_A17a) (antibody, V domains shown)
VH: QVQLVQSGADVKKPGSSVTVSCKASGGSFSNYGINWVRQAPGQGLEWMGGIIPLINAPNYAPKFQGRVTITADMFSNIVSLQLTSLRTDDTAVYYCARRKMTTAIDYWGQGTLVTVSS
VL: QPVLTQPPSASASLGASVTLTCTLSSAYSNYKVDWYQQRPGKGPRFVMRVGTGGIVGSKGDGIPDRFSVLGSGLNRYLTIKNIQEEDESDYHCGADHGSGSNFVSPYVFGGGTKLTVL
B2: TCN-532 (5262_H18) (antibody, V domains shown)
VH: QVQLQESGPGLVKPSETLSLTCTVSGGSVSSETYYWSWIRQPPGKGLEWIGYIYYIGNTDYRPSLKSRVTISLDTSKNQFSLKLSSVTAADTAVYYCARGAYYDSSGYPAFYIWGQGTMVTVSS
VL: QSVLTQPPSVSGAPGQRVTISCTGSSSNIGSDYDVHWYKQLPGTAPKLLIFGNSNRPSGVPDRFSGSKSGTSASLAITGLQAEDEADYYCQSYDSSLSGFHVFGSGTKVTVL

Columns and labels:
[1] = biological target: recombinant soluble homotrimeric HA of A/California/4/09 (H1N1) (Influenza A virus …); assay: HA microarray, BCC supernatant
[2] = biological target: recombinant soluble homotrimeric HA of A/Solomon Islands/3/06 (H1N1) (Influenza A virus A/Solomon …); assay: HA microarray, BCC supernatant
[3] = biological target: recombinant soluble homotrimeric HA of A/Japan/305/57 (H2N2) (Influenza A virus A/Japan/305/1957(H2N2)); assay: HA microarray, BCC supernatant
[4] = biological target: recombinant soluble homotrimeric HA of A/Wisconsin/67/05 (H3N2) (Influenza A virus …); assay: HA microarray, BCC supernatant
[5] = biological target: recombinant soluble homotrimeric HA of A/swine/Ontario/01911-2/99 (H4N6) (Influenza A virus …); assay: HA microarray, BCC supernatant
[6] = biological target: recombinant soluble homotrimeric HA of A/Vietnam/1203/04 (H5N1) (Influenza A virus …); assay: HA microarray, BCC supernatant
[7] = biological target: recombinant soluble homotrimeric HA of A/Indonesia/5/05 (H5N1) (Influenza A virus …); assay: HA microarray, BCC supernatant
[8] = biological target: recombinant soluble homotrimeric HA of A/Egypt/3300-NAMRU3/08 (H5N1) (Influenza A virus …); assay: HA microarray, BCC supernatant
[9] = biological target: recombinant soluble homotrimeric HA of A/Anhui/1/05 (H5N1) (Influenza A virus A/Anhui/1/2005(H5N1)); assay: HA microarray, BCC supernatant
[10] = biological target: recombinant soluble homotrimeric HA of A/chicken/Vietnam/NCVD-016/08 (H5N1) (Influenza A virus …); assay: HA microarray, BCC supernatant
[11] = biological target: recombinant soluble homotrimeric HA of A/northern shoveler/California/HKWF115/07 (H6) (Influenza A virus A/northern …); assay: HA microarray, BCC supernatant
[12] = biological target: recombinant soluble homotrimeric HA of A/Netherlands/219/03 (H7N7) (Influenza A virus …); assay: HA microarray, BCC supernatant
[13] = biological target: recombinant soluble homotrimeric HA of A/duck/Yangzhou/02/05 (H8N4) (Influenza A virus …); assay: HA microarray, BCC supernatant
[14] = biological target: recombinant soluble homotrimeric HA of A/Hong Kong/2108/03 (H9N2) (Influenza A virus A/HK/2108/2003(H9N2)); assay: HA microarray, BCC supernatant
[15] = biological target: T1, hemagglutinin (HA) of influenza A/Japan/305/57 (H2N2) on whole virions (Influenza A virus A/Japan/305/1957(H2N2), UniProt P03451 16-562); assay: ELISA, purified IgG on inactivated whole virions
[16] = biological target: T1, hemagglutinin (HA) of influenza …; assay: ELISA; BCC supernatant on coated inactivated whole virions

Row | Binder | Trimeric HA Binding: RLU [1] [RLU] | Trimeric HA Binding: RLU [2] [RLU] | Trimeric HA Binding: RLU [3] [RLU] | Trimeric HA Binding: RLU [4] [RLU] | Trimeric HA Binding: RLU [5] [RLU] | Trimeric HA Binding: RLU [6] [RLU] | Trimeric HA Binding: RLU [7] [RLU] | Trimeric HA Binding: RLU [8] [RLU] | Trimeric HA Binding: RLU [9] [RLU] | Trimeric HA Binding: RLU [10] [RLU] | Trimeric HA Binding: RLU [11] [RLU] | Trimeric HA Binding: RLU [12] [RLU] | Trimeric HA Binding: RLU [13] [RLU] | Trimeric HA Binding: RLU [14] [RLU] | binding result [15] | ELISA virus binding (OD450) [16] [OD450]
1 | B1 | 29300 | 39200 | 10800 | 13800 | 1580 | 5680 | 44100 | 34300 | 8060 | 47700 | 41400 | 2470 | 24700 | 172 |  | 
2 | B2 |  |  |  |  |  |  |  |  |  |  |  |  |  |  | no binding | 0.07

From patent publication US20150086555A1 (THERACLONE SCIENCES, published 2015)
